The results in this text go back to paper PMC3701638.

In this test the target is α-casein.
Consider “GST-CK1δ^(S328A, S370A, T397A) (FP1293) (from UniProt Q06486 1-415) (enzyme)”, for which the Km of α-casein phosphorylation by the kinase (in vitro kinase assay, Michaelis-Menten fit) came to 7.74 µM.

On to “GST-CK1δ (FP449), wild-type full length rat CK1δ (from UniProt Q06486 1-415) (enzyme)”, for which the Km of α-casein phosphorylation by the kinase (in vitro kinase assay, Michaelis-Menten fit) turned out to be 4.84 µM. Next, “GST-CK1δ^(S328A, S370A) (FP1292) (from UniProt Q06486 1-415) (enzyme)”: 5.31 µM; “GST-CK1δ^(S328A, T397A) (FP1268) (from UniProt Q06486 1-415) (enzyme)”: 6.63 µM. In the case of “GST-CK1δ^S370A (FP1030) (from UniProt Q06486 1-415) (enzyme)”, the Km of α-casein phosphorylation by the kinase (in vitro kinase assay, Michaelis-Menten fit) came to 7.38 µM.

In the case of “GST-CK1δ^T397A (FP1184) (from UniProt Q06486 1-415) (enzyme)”, the Km of α-casein phosphorylation by the kinase (in vitro kinase assay, Michaelis-Menten fit) came out at 7.2 µM. “GST-CK1δ^S328A (FP1267) (from UniProt Q06486 1-415) (enzyme)”: the Km of α-casein phosphorylation by the kinase (in vitro kinase assay, Michaelis-Menten fit) stood at 5.49 µM.
